According to patent US20260184782A1 (TWIST BIOSCIENCE, published 2026):
Where a chain is given by its changes, count along the chain named.

T1: human TIGIT-Fc (human, UniProt Q495A1 22-141, limits assumed)
T1 construct: not shown: Fc; not described
T1 sequence (looked up): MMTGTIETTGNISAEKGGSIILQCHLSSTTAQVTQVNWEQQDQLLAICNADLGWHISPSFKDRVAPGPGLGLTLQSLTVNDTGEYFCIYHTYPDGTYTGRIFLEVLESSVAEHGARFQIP

B1: TIGIT-SC45 (Fc fusion)
VHH: EVQLVESGGGLVQPGGSLRLSCAASGGTFNAMGWFRQAPGKEREWVASVLRGGYTWYADSVKGRFTISADNSKNTAYLQMNSLKPEDTAVYYCAKDGGSSGTYQNWWGQGTLVTVSS
notes: VHH-Fc
B2: TIGIT-SC76 (Fc fusion)
VHH: EVQLVESGGGLVQPGGSLRLSCAASGFTFSDYAMGWFRQAPGKERELVARIGHDGSTDYADSVKGRFTISADNSKNTAYLQMNSLKPEDTAVYYCLGGLDPWGQGTLVTVSS
notes: VHH-Fc
B3: TIGIT-SC40 (Fc fusion)
VHH: EVQLVESGGGLVQPGGSLRLSCAASGFSFDRWAMGWFRQAPGKERELVARISWNGGSTYYADSVKGRFTISADNSKNTAYLQMNSLKPEDTAVYYCARDDGWLQFMHWGQGTLVTVSS
notes: VHH-Fc
B4: TIGIT-SC70 (Fc fusion)
VHH: EVQLVESGGGLVQPGGSLRLSCAASGRTFSSFAMGWFRQAPGKEREFVAAISGSGEDTYYADSVKGRFTISADNSKNTAYLQMNSLKPEDTAVYYCARWRLDRRQGFYYAMDVWGQGTLVTVSS
notes: VHH-Fc
B5: TIGIT-SC39 (Fc fusion)
VHH: EVQLVESGGGLVQPGGSLRLSCAASGRTVSSHAMGWFRQAPGKEREFVAAITSSGSTYYADSVKGRFTISADNSKNTAYLQMNSLKPEDTAVYYCASSYSSSSGLGDIWGQGTLVTVSS
notes: VHH-Fc
B6: TIGIT-SC32 (Fc fusion)
VHH: EVQLVESGGGLVQPGGSLRLSCAASGFAFGDSWMGWFRQAPGKERELVAAIDWSGGSALYADSVKGRFTISADNSKNTALQMNSLKPEDTAVYYCAKVHSDFRAGWDVWGQGTLVTVSS
notes: VHH-Fc
B7: TIGIT-SC74 (Fc fusion)
VHH: EVQLVESGGGLVQPGGSLRLSCAASGRTFANNAMGWFRQAPGKEREFVAAINWSGGNTYYADSVKGRFTISADNSKNTAYLQMNSLKPEDTAVYYCAKWSYYGSGLYGMDVWGQGTLVTVSS
notes: VHH-Fc
B8: TIGIT-SC75 (Fc fusion)
VHH: B7 VHH with R27F, T28I, F29G, A30N, N31Y, N32H, N52R, G55D, N57S, T58S
notes: VHH-Fc
B9: TIGIT-SC81 (Fc fusion)
VHH: EVQLVESGGGLVQPGGSLRLSCAASGRSFKDDAMGWFRQAPGKEREFVAAISWSGDSTHYADSVKGRFTISADNSKNTAYLQMNSLKPEDTAVYYCARWVWASGTYWIDYWGQGTLVTVSS
notes: VHH-Fc
B10: TIGIT-SC71 (Fc fusion)
VHH: EVQLVESGGGLVQPGGSLRLSCAASGSIRSLNAMGWFRQAPGKEREFVAAINWDSARTYYADSVKGRFTISADNSKNTAYLQMNSLKPEDTAVYYCARWSAKRHSDTMTYYMDVWGQGTLVTVSS
notes: VHH-Fc
B11: TIGIT-SC35 (Fc fusion)
VHH: EVQLVESGGGLVQPGGSLRLSCAASGFTLENNMMGWFRQAPGKERELVAAISMSGDDTIYADSVKGRFTISADNSKNTAYLQMNSLKPEDTAVYYCARQGDTVMVSGIDYWGQGTLVTVSS
notes: VHH-Fc
B12: TIGIT-SC33 (Fc fusion)
VHH: EVQLVESGGGLVQPGGSLRLSCAASGFLFDSYAMGWFRQAPGKEREFVAAVSQSGLLTFYADSVKGRFTISADNSKNTAYLQMNSLKPEDTAVYYCASRTSSWWWFDPWGQGTLVTVSS
notes: VHH-Fc
B13: TIGIT-SC72 (Fc fusion)
VHH: EVQLVESGGGLVQPGGSLRLSCAASGGLTFSSYAMGWFRQAPGKEREFVAAISWSGGRTYYADSVKGRFTISADNSKNTAYLQMNSLKPEDTAVYYCARWSAKRHSDTMTYYMDVWGQGTLVTVSS
notes: VHH-Fc
B14: TIGIT-SC47 (Fc fusion)
VHH: EVQLVESGGGLVQPGGSLRLSCAASGRALNMYVMGWFRQAPGKERELVAAIDWSGGSALYADSVKGRFTISADNSKNTAYLQMNSLKPEDTAVYYCASGDGYSMDYFDPWGQGTLVTVSS
notes: VHH-Fc
B15: TIGIT-SC56 (Fc fusion)
VHH: EVQLVESGGGLVQPGGSLRLSCAASGNTFSGGFMGWFRQAPGKEREWVASVLRGGYTWYADSVKGRFTISADNSKNTAYLQMNSLKPEDTAVYYCAHSKGYNWFDPWGQGTLVTVSS
notes: VHH-Fc
B16: TIGIT-SC55 (Fc fusion)
VHH: EVQLVESGGGLVQPGGSLRLSCAASGFPFDDYAMGWFRQAPGKERELVAVIRWTGMNTHYADSVKGRFTISADNSKNTAYLQMNSLKPEDTAVYYCAKGIAVAGAFDYWGQGTLVTVSS
notes: VHH-Fc
B17: TIGIT-SC69 (Fc fusion)
VHH: EVQLVESGGGLVQPGGSLRLSCAASGGTFNGRAMGWFRQAPGKEREFVAAISSIGDTYYADSVKGRFTISADNSKNTAYLQMNSLKPEDTAVYYCARWRLDRRQGFYYAMDVWGQGTLVTVSS
notes: VHH-Fc
B18: TIGIT-SC48 (Fc fusion)
VHH: EVQLVESGGGLVQPGGSLRLSCAASGRTSDIYGMGWFRQAPGKEREAVASIWRSGGNTYYADSVKGRFTISADNSKNTAYLQMNSLKPEDTAVYYCASSTLDVWGQGTLVTVSS
notes: VHH-Fc
B19: TIGIT-SC79 (Fc fusion)
VHH: EVQLVESGGGLVQPGGSLRLSCAASGSILSINTMGWFRQAPGKEREFVAAITSAGGTTYYADSVKGRFTISADNSKNTAYLQMNSLKPEDTAVYYCARWHYDILTGYYWLDSWGQGTLVTVSS
notes: VHH-Fc
B20: TIGIT-SC99 (Fc fusion)
VHH: EVQLVESGGGLVQPGGSLRLSCAASGSIFSMNTMGWFRQAPGKEREFVGAINWSGGSTIYADSVKGRFTISADNSKNTAYLQMNSLKPEDTAVYYCARWDYDILTNYYWLEYWGQGTLVTVSS
notes: VHH-Fc
B21: TIGIT-SC80 (Fc fusion)
VHH: B19 VHH with S27N, L29P, S30P, T33A, T52N, S53Y, A54S, T57S
notes: VHH-Fc
B22: TIGIT-SC44 (Fc fusion)
VHH: EVQLVESGGGLVQPGGSLRLSCAASGSIFGLGAMGWFRQAPGKERELVAITWGGSTTLYADSVKGRFTISADNSKNTAYLQMNSLKPEDTAVYYCATDQGQWLFDFWGQGTLVTVSS
notes: VHH-Fc
B23: TIGIT-SC85 (Fc fusion)
VHH: EVQLVESGGGLVQPGGSLRLSCAASGRTFSPYTMGWFRQAPGKEREWVAGISQSGGSTAYADSVKGRFTISADNSKNTAYLQMNSLKPEDTAVYYCARDLNAMGDAYDIWGQGTLVTVSS
notes: VHH-Fc
B24: TIGIT-SC52 (Fc fusion)
VHH: EVQLVESGGGLVQPGGSLRLSCAASGFLFDSYAMGWFRQAPGKEREFVAAISTGGGWRTYADSVKGRFTISADNSKNTAYLQMNSLKPEDTAVYYCAKRGNDNWYFDLWGQGTLVTVSS
notes: VHH-Fc
B25: TIGIT-SC87 (Fc fusion)
VHH: EVQLVESGGGLVQPGGSLRLSCAASGSIDTINTMGWFRQAPGKEREFVAAITPSSRTTYYVDSVKGRFTISADNSKNTAYLQMNSLKPEDTAVYYCARWGGVTFGGVYPLEYWGQGTLVTVSS
notes: VHH-Fc
B26: TIGIT-SC73 (Fc fusion)
VHH: EVQLVESGGGLVQPGGSLRLSCAASGSSFSLADYAMGWFRQAPGKEREFVAAISYNVGTTYYADSVKGRFTISADNSKNTAYLQMNSLKPEDTAVYYCARWSAKRHSDTMTYYMDVWGQGTLVTVSS
notes: VHH-Fc
B27: TIGIT-SC34 (Fc fusion)
VHH: EVQLVESGGGLVQPGGSLRLSCAASGTTFSPYTMGWFRQAPGKEREFVASINSGSRTNYADSVKGRFTISADNSKNTAYLQMNSLKPEDTAVYYCVRSEIGWGQGTLVTVSS
notes: VHH-Fc
B28: TIGIT-SC66 (Fc fusion)
VHH: EVQLVESGGGLVQPGGSLRLSCAASGTTFSSAAMGWFRQAPGKEREWVASVLRGGYTWYADSVKGRFTISADNSKNTAYLQMNSLKPEDTAVYYCVTDPRQWLGHDYWGQGTLVTVSS
notes: VHH-Fc
B29: TIGIT-SC86 (Fc fusion)
VHH: EVQLVESGGGLVQPGGSLRLSCAASGIIASDSAMGWFRQAPGKEREFVAAIRWSGKETWYADSVKGRFTISADNSKNTAYLQMNSLKPEDTAVYYCARWGGVTFGGVYPLEYWGQGTLVTVSS
notes: VHH-Fc
B30: TIGIT-SC103 (Fc fusion)
VHH: EVQLVESGGGLVQPGGSLRLSCAASGTITSAVFMGWFRQAPGKEREFVAAISWSGGDTNYADSVKGRFTISADNSKNTAYLQMNSLKPEDTAVYYCARWGGITFGGVYPLDYWGQGTLVTVSS
notes: VHH-Fc
B31: TIGIT-SC88 (Fc fusion)
VHH: EVQLVESGGGLVQPGGSLRLSCAASGFTFSSDWMGWFRQAPGKEREFVAAINRSGHSTSYADSVKGRFTISADNSKNTAYLQMNSLKPEDTAVYYCARWGGVTFGGVYPLEYWGQGTLVTVSS
notes: VHH-Fc
B32: TIGIT-SC43 (Fc fusion)
VHH: EVQLVESGGGLVQPGGSLRLSCAASGFTFADYAMGWFRQAPGKEREMVAAIGWNSGTTEYADSVKGRFTISADNSKNTAYLQMNSLKPEDTAVYYCARDTNGWFFDFWGQGTLVTVSS
notes: VHH-Fc
B33: TIGIT-SC49 (Fc fusion)
VHH: EVQLVESGGGLVQPGGSLRLSCAASGRTFIGYHMGWFRQAPGKEREFVAAISWTGESTLYADSVKGRFTISADNSKNTAYLQMNSLKPEDTAVYYCARDDYGDYRRYFQHWGQGTLVTVSS
notes: VHH-Fc

Molecular target: T1, human TIGIT-Fc
Experiment: CD155 competition ELISA, single point; note: test concentration or dose not given here
Description: TIGIT/CD155 inhibition of VHH-Fcs were assessed using an ELISA assay (Table 10B). Briefly, human TIGIT-Fc was coated on a plate & then incubated with VHH-Fcs and human CD155-biotin. Bound CD155-biotin was detected using a streptavidin-HRP conjugate visualized with TMB. Strong inhibitors from the single point screen were titrated to determine EC50 (Table 10C).

Row | OD (450 nm) [OD] | Binder
1 | 0.359 | B1
2 | 0.673 | B2
3 | 0.613 | B3
4 | 0.64 | B4
5 | 0.652 | B5
6 | 0.86 | B6
7 | 0.649 | B7
8 | 0.652 | B8
9 | 0.553 | B9
10 | 0.868 | B10
11 | 0.42 | B11
12 | 0.764 | B12
13 | 0.394 | B13
14 | 0.69 | B14
15 | 0.335 | B15
16 | 0.364 | B16
17 | 0.666 | B17

Row | OD (450 nm) [OD] | Binder
18 | 0.381 | B18
19 | 0.8 | B19
20 | 0.635 | B20
21 | 0.508 | B21
22 | 0.359 | B22
23 | 0.768 | B23
24 | 0.351 | B24
25 | 0.438 | B25
26 | 0.405 | B26
27 | 0.4 | B27
28 | 0.325 | B28
29 | 0.716 | B29
30 | 0.666 | B30
31 | 0.484 | B31
32 | 0.64 | B32
33 | 0.382 | B33
